Molecular target: the molecule itself
Assay: static light scattering

B1: βA3-crystallin (natural protein)
chain: METQAEQQELETLPTTKMAQTNPTPGSLGPWKITIYDQENFQGKRMEFTSSCPNVSERSFDNVRSLKVESGAWIGYEHTSFCGQQFILERGEYPRWDAWSGSNAYHIERLMSFRPICSANHKESKMTIFEKENFIGRQWEISDDYPSLQAMGWFNNEVGSMKIQSGAWVCYQYPGYRGYQYILECDHHGGDYKHWREWGSHAQTSQIQSIRRIQQ
stoichiometry N: 2
